Data set [1] is described as follows: Activity against Hipp-Arg in crude E. coli periplasmic shockate relative to mature HCPB (Example 16). It counts as biochemical. From the text:
A number of other mutant HCPBs have been constructed in a similar manner to the methods described in Reference Examples 7 and 8, and Examples 12, 13, 14 and 15. In each case oligos were constructed to introduce specific changes in the gene sequence by methods similar to those described above. In some cases additional mutations were identified upon complete sequencing of the mutated gene, and these were presumably introduced during the PCR reactions. Mutants with enzyme activity against substrate analogues (see Example 18 below) have been identified, and examples of these are given in Table 4 below. […] This material is subsequently referred to as periplasmic shockate or shockate and is prepared by the following procedure.
1. A single colony was used to inoculate 75 ml of L-broth nutrient media containing 10 μg/ml tetracycline and arabinose to a final concentration of 0.01% (w/v). […]
The activity of [G251T,D253K]HCPB was measured using the assay conditions described in Example 17 but using either 50 μl of a neat or 1 in 10 or 1 in 100 dilution of [G251T,D253K]HCPB crude E.coli periplasmic shockate (shockate) sample in place of purified enzyme. […] The amount of Hippuric acid produced in 24 h was quantified by HPLC as described in Example 17 and the results are shown in Table 6 and are expressed as the percentage conversion of substrate into product in 24 h at 37° C.

Numbering of substitutions follows the chain as printed. In names and notes the source's numbering stands.

The molecule `O=C(O)CCC(=O)Oc1ccc(N(CCCl)CCCl)cc1` came in with a melting point of 98 to 100 °C.

B1: C288S: HCPB mutant with C288S (protein, UniProt P15086 111-417, looked up, variant C288S)
Carboxypeptidase B: ATGHSYEKYNKWETIEAWTQQVATENPALISRSVIGTTFEGRAIYLLKVGKAGQNKPAIFMDCGFHAREWISPAFCQWFVREAVRTYGREIQVTELLDKLDFYVLPVLNIDGYIYTWTKSRFWRKTRSTHTGSSCIGTDPNRNFDAGWCEIGASRNPCDETYCGPAAESEKETKALADFIRNKLSSIKAYLTIHSYSQMMIYPYSYAYKLGENNAELNALAKATVKELASLHGTKYTYGPGATTIYPAAGGSDDWAYDQGIRYSFTFELRDTGRYGFLLPESQIRATSEETFLAIKYVASYVLEHLY
For the molecule B1, the “Hipp-Arg, activity relative to mature HCPB” value in data set [1] was “c (activity 75% of mature HCPB (described in Reference Examples 7 and 8))”.

B2: C288A: HCPB mutant with C288A (protein, UniProt P15086 111-417, looked up, variant C288A)
Carboxypeptidase B: B1 Carboxypeptidase B with S288A
Regarding B2, the “Hipp-Arg, activity relative to mature HCPB” value in data set [1] was “d (activity 25% of mature HCPB (described in Reference Examples 7 and 8))”.

(Values after patent US6436691B1, “Chemical compounds” (Zeneca Limited, priority 1995, dated 2002).)
